Reference: patent US20250320281A1

Assays:
Assay in all cases: cell-based or functional assay
[1] = target: HIV-1 envelope glycoprotein (Env) of isolate MGRM-A-004, clade A (HIV-1)
[2] = target: HIV-1 Env of isolate CAAN.A2 (Acute), clade B, on pseudovirus (HIV-1)
[3] = target: HIV-1 Env of isolate 93IN905 (subtype C) (HIV-1)
[4] = target: HIV-1 Env of isolate VLGCA1 (subtype A) (HIV-1)
[5] = target: HIV-1 envelope glycoprotein (Env) of isolate MGRM-C-010 (HIV-1)
[6] = target: HIV-1 Env of pseudovirus MGRM-F1-013 (HIV-1)
[7] = target: HIV-1 NL43 Env on pseudotyped virus (HIV-1 NL43)
[8] = target: HIV-1 JR-CSF Env on pseudotyped virus (HIV-1 isolate JR-CSF) (UniProt P20871)
[9] = target: HIV-1 93IN905 Env on pseudotyped virus (HIV-1 isolate 93IN905)
[10] = target: HIV-1 IAVI_C22 Env on pseudotyped virus (HIV-1 isolate IAVI_C22)
[11] = target: HIV-1 envelope glycoprotein (Env) of isolate CAAN.A2 (HIV-1)
[12] = target: HIV-1 envelope glycoprotein (Env) of isolate APV_17 (HIV-1)
[13] = target: HIV-1 envelope glycoprotein (Env) of isolate MGRM-Chronic-B-003 (HIV-1)
[14] = target: HIV-1 Env of isolate 93UG077 (subtype A) (HIV-1)
[15] = target: HIV-1 envelope glycoprotein (Env) of isolate MGRM-Chronic-B-004 (HIV-1)
[16] = target: HIV-1 Env of isolate 92WR021 (subtype A) (HIV-1)
[17] = target: HIV-1 envelope glycoprotein (Env) of isolate MGRM-Chronic-B-002 (HIV-1)
[18] = target: HIV-1 envelope glycoprotein (Env) of isolate APV_6 (HIV-1)
[19] = target: HIV-1 envelope glycoprotein (Env) of isolate JR-FL (HIV-1)
[20] = target: HIV-1 envelope glycoprotein (Env) of isolate APV_13 (HIV-1)
[21] = target: HIV-1 envelope glycoprotein (Env) of isolate 92BR020 (HIV-1)
[22] = target: HIV-1 envelope glycoprotein (Env) of isolate 6535.3 (HIV-1)
[23] = target: HIV-1 envelope glycoprotein (Env) of isolate MGRM-Chronic-B-001 (HIV-1)
[24] = target: HIV-1 Env of isolate 92UG037 (subtype A) (HIV-1)
[25] = target: HIV-1 Env of isolate 94 KE 105 (subtype AC) (HIV-1)
[26] = target: HIV-1 Env of isolate 92WR009 (subtype A) (HIV-1)
[27] = target: HIV-1 envelope glycoprotein (Env) of isolate MGRM-Chronic-B-008 (HIV-1)
[28] = target: HIV-1 Env of isolate 93WR029 (subtype A) (HIV-1)
[29] = target: HIV-1 Env of isolate 92WR024 (subtype A) (HIV-1)
[30] = target: HIV-1 Env of isolate 92WR020 (subtype A) (HIV-1)
[31] = target: HIV-1 Env of isolate 92RW008 (subtype A) (HIV-1)
[32] = target: HIV-1 envelope glycoprotein (Env) of isolate 93TH305 (HIV-1)
[33] = target: HIV-1 Env of isolate 92UG031 (subtype A) (HIV-1)
[34] = target: HIV-1 Env of isolate 92WR026 (subtype A) (HIV-1)

Sequence of 4980_N08 (PGT-143) (antibody) (VH): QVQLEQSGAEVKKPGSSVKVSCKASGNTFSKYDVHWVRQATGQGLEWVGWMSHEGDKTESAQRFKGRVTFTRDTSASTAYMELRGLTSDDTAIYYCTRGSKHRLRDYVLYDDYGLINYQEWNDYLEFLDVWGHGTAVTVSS
Sequence of 4980_N08 (PGT-143) (antibody) (VL): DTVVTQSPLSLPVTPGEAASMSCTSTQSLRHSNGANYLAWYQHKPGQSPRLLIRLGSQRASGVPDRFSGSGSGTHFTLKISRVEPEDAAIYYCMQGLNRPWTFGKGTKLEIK
Sequence of 4995_E20 (PGT-142) (antibody) (VH): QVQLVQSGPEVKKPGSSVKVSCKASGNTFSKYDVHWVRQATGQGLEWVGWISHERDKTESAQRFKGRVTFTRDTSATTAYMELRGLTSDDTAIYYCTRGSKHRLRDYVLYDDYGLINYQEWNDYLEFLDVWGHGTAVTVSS
Sequence of 4995_E20 (PGT-142) (antibody) (VL): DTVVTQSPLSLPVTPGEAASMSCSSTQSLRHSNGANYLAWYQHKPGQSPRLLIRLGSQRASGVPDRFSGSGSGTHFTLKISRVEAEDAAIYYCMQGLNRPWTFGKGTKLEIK
Sequence of 1443_C16 (PG16) (TCN-116) (antibody) (VH): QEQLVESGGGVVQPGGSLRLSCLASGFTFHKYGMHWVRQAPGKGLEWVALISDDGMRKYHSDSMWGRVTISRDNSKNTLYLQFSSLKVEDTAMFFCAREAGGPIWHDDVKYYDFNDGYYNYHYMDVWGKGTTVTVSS
Sequence of 1443_C16 (PG16) (TCN-116) (antibody) (VL): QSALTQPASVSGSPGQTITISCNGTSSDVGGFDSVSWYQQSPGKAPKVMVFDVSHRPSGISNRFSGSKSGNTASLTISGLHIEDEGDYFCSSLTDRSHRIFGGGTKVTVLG

Substance | IC50 (µg/ml), pseudovirus neutralization [2] | IC50 (µg/mL), pseudovirus neutralization [4] | IC50 (µg/mL), pseudovirus neutralization [11] | IC50 (µg/mL), pseudovirus neutralization [12] | IC50 (µg/mL), pseudovirus neutralization [13] | IC50 (µg/mL), pseudovirus neutralization [14] | IC50 (µg/mL), pseudovirus neutralization [15] | IC50 (µg/mL), pseudovirus neutralization [16] | IC50 (µg/mL), pseudovirus neutralization [17] | IC50 (µg/mL), pseudovirus neutralization [18] | IC50 (µg/mL), pseudovirus neutralization [19] | IC50 (µg/mL), pseudovirus neutralization [20] | IC50 (µg/mL), pseudovirus neutralization [21] | IC50 (µg/mL), pseudovirus neutralization [22] | IC50 (µg/mL), pseudovirus neutralization [23] | IC50 (µg/mL), pseudovirus neutralization [24] | IC50 (µg/mL), pseudovirus neutralization [25] | IC50 (µg/mL), pseudovirus neutralization [26] | IC50 (µg/mL), pseudovirus neutralization [27] | IC50 (µg/mL), pseudovirus neutralization [28] | other results
4E10 (antibody) | 17.9 µg/mL | – | – | – | – | – | – | – | – | – | – | – | – | – | – | – | – | – | – | – | IC50 (µg/ml), pseudovirus neutralization [1]: 3.14 µg/mL
5147_N06 (PGT-130) (antibody) | – | > 50 µg/mL | – | – | – | – | – | – | – | – | – | – | – | – | – | – | – | – | – | – | IC50 neutralization [3]: 0.02 µg/mL; IC50 (µg/mL), pseudovirus neutralization [5]: > 50 µg/mL
1496_C09 (PG9) (TCN-109) (antibody) | 5.67 µg/mL | – | – | – | – | – | – | – | – | – | – | – | – | – | – | – | – | – | – | – | IC50 (µg/ml), pseudovirus neutralization [6]: 0.56 µg/mL; Neutralizing Antibody Assay: IC50; Virus/Ab Incubation 1 hour [7]: 0.294 µg/mL; Neutralizing Antibody Assay: IC50; Virus/Ab Incubation 18 hour [7]: 38 µg/mL; Neutralizing Antibody Assay: IC50; Virus/Ab Incubation 1 hour [8]: < 0.0025 µg/mL; Neutralizing Antibody Assay: IC50; Virus/Ab Incubation 18 hour [8]: < 0.0025 µg/mL; Neutralizing Antibody Assay: IC50; Virus/Ab Incubation 1 hour [9]: 0.144 µg/mL; Neutralizing Antibody Assay: IC50; Virus/Ab Incubation 18 hour [9]: 0.0619 µg/mL; Neutralizing Antibody Assay: IC50; Virus/Ab Incubation 1 hour [10]: 24.9 µg/mL; Neutralizing Antibody Assay: IC50; Virus/Ab Incubation 18 hour [10]: 2.11 µg/mL
1443_C16 (PG16) (TCN-116) (antibody) | 8.83 µg/mL | – | – | – | – | – | – | – | – | – | – | – | – | – | – | – | – | – | – | – | Neutralizing Antibody Assay: IC50; Virus/Ab Incubation 1 hour [7]: < 0.0025 µg/mL; Neutralizing Antibody Assay: IC50; Virus/Ab Incubation 18 hour [7]: 4.99 µg/mL; IC50 (µg/ml), pseudovirus neutralization [1]: 0.04 µg/mL; Neutralizing Antibody Assay: IC50; Virus/Ab Incubation 1 hour [8]: < 0.0025 µg/mL; Neutralizing Antibody Assay: IC50; Virus/Ab Incubation 18 hour [8]: < 0.0025 µg/mL; Neutralizing Antibody Assay: IC50; Virus/Ab Incubation 1 hour [9]: 0.33 µg/mL; Neutralizing Antibody Assay: IC50; Virus/Ab Incubation 18 hour [9]: 0.255 µg/mL; Neutralizing Antibody Assay: IC50; Virus/Ab Incubation 1 hour [10]: 0.114 µg/mL; Neutralizing Antibody Assay: IC50; Virus/Ab Incubation 18 hour [10]: 0.106 µg/mL
VRC01 (antibody) | – | 0.163 µg/mL | 0.722 µg/mL | 0.477 µg/mL | 0.1 µg/mL | 0.097 µg/mL | 0.055 µg/mL | 0.066 µg/mL | 0.117 µg/mL | 1.81 µg/mL | 0.034 µg/mL | 0.657 µg/mL | 0.29 µg/mL | 1.75 µg/mL | 0.066 µg/mL | 0.245 µg/mL | 0.499 µg/mL | 0.187 µg/mL | 0.155 µg/mL | 1.57 µg/mL | IC50 (µg/mL), pseudovirus neutralization [29]: 0.327 µg/mL; IC50 (µg/mL), pseudovirus neutralization [30]: 0.13 µg/mL; IC50 (µg/mL), pseudovirus neutralization [31]: 0.037 µg/mL; IC50 (µg/mL), pseudovirus neutralization [32]: 0.243 µg/mL; IC50 (µg/mL), pseudovirus neutralization [33]: 0.469 µg/mL
4995_E20 (PGT-142) (antibody) | – | 2.75 µg/mL | > 50 µg/mL | 0.628 µg/mL | 0.484 µg/mL | > 50 µg/mL | 0.172 µg/mL | > 50 µg/mL | > 50 µg/mL | 4.72 µg/mL | > 50 µg/mL | > 50 µg/mL | 15.1 µg/mL | > 50 µg/mL | > 50 µg/mL | 0.557 µg/mL | 0.19 µg/mL | 0.006 µg/mL | > 50 µg/mL | 0.014 µg/mL | IC50 (µg/mL), pseudovirus neutralization [29]: 0.069 µg/mL; IC50 (µg/mL), pseudovirus neutralization [34]: 1.78 µg/mL; IC50 (µg/mL), pseudovirus neutralization [30]: 31.5 µg/mL; IC50 (µg/mL), pseudovirus neutralization [31]: 0.447 µg/mL; IC50 (µg/mL), pseudovirus neutralization [32]: 5.86 µg/mL; IC50 (µg/mL), pseudovirus neutralization [33]: 0.05 µg/mL
4980_N08 (PGT-143) (antibody) | – | 17.4 µg/mL | > 50 µg/mL | 1.11 µg/mL | 0.854 µg/mL | > 50 µg/mL | 0.395 µg/mL | > 50 µg/mL | > 50 µg/mL | 14 µg/mL | > 50 µg/mL | > 50 µg/mL | 25.9 µg/mL | > 50 µg/mL | > 50 µg/mL | 0.854 µg/mL | 0.368 µg/mL | 0.01 µg/mL | > 50 µg/mL | 0.053 µg/mL | IC50 (µg/mL), pseudovirus neutralization [29]: 0.122 µg/mL; IC50 (µg/mL), pseudovirus neutralization [34]: 5.36 µg/mL; IC50 (µg/mL), pseudovirus neutralization [30]: > 50 µg/mL; IC50 (µg/mL), pseudovirus neutralization [31]: 0.385 µg/mL; IC50 (µg/mL), pseudovirus neutralization [32]: 17.3 µg/mL; IC50 (µg/mL), pseudovirus neutralization [33]: 0.095 µg/mL
